Measurements: paper PMC4943463

Biological target: A3B-CTD (APOBEC3B C-terminal domain, wild type) (Homo sapiens, UniProt Q9UH17 187-382)
Experiment: NMR titration

A3B-CTD (APOBEC3B C-terminal domain, wild type), sequence (Q9UH17 187-382): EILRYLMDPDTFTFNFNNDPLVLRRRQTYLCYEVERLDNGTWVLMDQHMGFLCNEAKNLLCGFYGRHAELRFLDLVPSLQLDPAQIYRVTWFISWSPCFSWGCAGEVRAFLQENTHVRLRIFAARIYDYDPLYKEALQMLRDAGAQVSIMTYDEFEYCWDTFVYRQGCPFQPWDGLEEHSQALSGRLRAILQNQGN

Question: ATTTUATTT (ssDNA, deoxyuridine at position 5 (DNA oligonucleotide, U in place of target C)) [9-nt U-containing oligonucleotide ATTTUATTT] was tested. Which Kd did it give?
Answer: 119 ± 26 µM
